Data reported in US20180292411A1.

Molecular target: S100A9 (human) (UniProt P06702)
Assay: cell-based or functional assay

Chain of S100A9 (human) (P06702 whole entry): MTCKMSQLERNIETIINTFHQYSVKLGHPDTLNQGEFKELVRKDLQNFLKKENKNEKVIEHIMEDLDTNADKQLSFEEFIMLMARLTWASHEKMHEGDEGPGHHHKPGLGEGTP

colony-forming capacity of MDS BM-MNC (fold greater than controls): < 6.6
Substance: S100A9 high-affinity chimeric (CD33-IgG1) decoy receptor (from UniProt P20138 18-259) (Fc fusion)
